According to US20190177380, “SYNTHETIC MBNL PROTEINS FOR TREATMENT OF REPEAT EXPANSION DISEASE” (University of Florida Research Foundation, Incorporated, published 2019):

Tests used:
[1] = target: T1, Xlrbpa dsRBD2 (printed Xlbpra) (Xenopus laevis) (UniProt Q91836); conditions: CITED; isolated dsRBD2; cited from earlier work
T1 sequence: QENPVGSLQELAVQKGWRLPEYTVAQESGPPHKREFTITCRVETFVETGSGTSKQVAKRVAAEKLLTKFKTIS

[2] = target: T2, TRBP dsRBD2 (TARBP2) (Homo sapiens) (UniProt Q15633); conditions: CITED; isolated dsRBD2; cited from earlier work
T2 sequence: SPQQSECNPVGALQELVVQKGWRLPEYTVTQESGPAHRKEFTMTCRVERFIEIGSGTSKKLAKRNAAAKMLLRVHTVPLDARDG

[3] = target: T3, MBNL1(3-4,3-4) (Homo sapiens); test: EMSA; 115 mM NaCl, 20 mM Tris pH 7.5, 5 mM MgCl2, heparin, room temperature; apparent Kd; conditions: label: 5'-32P; short hairpin (predicted)
T3 chain: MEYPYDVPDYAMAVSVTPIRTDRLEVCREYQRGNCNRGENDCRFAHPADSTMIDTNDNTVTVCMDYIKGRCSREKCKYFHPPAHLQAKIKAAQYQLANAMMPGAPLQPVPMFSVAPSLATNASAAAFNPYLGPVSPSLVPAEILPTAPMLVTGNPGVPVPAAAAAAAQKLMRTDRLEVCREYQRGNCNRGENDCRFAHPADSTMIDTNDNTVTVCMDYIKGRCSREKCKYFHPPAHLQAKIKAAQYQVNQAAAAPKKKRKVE
Source text: (§1) All synthetic MBNL1 proteins were expressed and purified as N-terminal glutathione S-transferase (GST) fusions (FIG. 4A). These proteins were then used in electrophoretic mobility shift assays (EMSAs) with CUG₄ RNA substrate. The fraction of radiolabeled RNA bound to the protein was used to determine an apparent KD (dissociation constant). […] (FIG. 4B).
(§2) All RNA substrates were ordered from IDT (Coralville, Iowa) or Dharmacon (Lafayette, Colo.) and 5′ end-labelled using T4 PNK (NEB, Ipswich, Mass.) with [γ-³²P] ATP. All RNAs were purified on 10% polyacrylamide denaturing gels. Prior to incubation with protein, these RNAs were denatured by incubation at 95° C. for 2 minutes followed by a 5 minute incubation on ice. Once cooled the RNA was mixed with increasing concentrations of protein (final volume=10 μl) to yield final reaction conditions of 115 mM NaCl, 20 mM Tris pH 7.5, 1 mM β-ME, 0.01 mM EDTA, 10% glycerol, 5 mM MgCl₂, 0.1 mg/ml heparin, 2 mg/ml bovine serum albumin (BSA), and 0.02% xylene cyanol. […] Binding curves were quantified using ImageQuant software (GE Healthcare Life Sciences, Pittsburgh, Pa.). The fraction of RNA bound was calculated as the ratio of all RNA-protein complexes divided by total RNA signal in each lane. The apparent Kd was then determined using the following equation: fbound=fₘₐₓ([MBNL1]/([MBNL1+Kd)).

[4] = target: T4, MBNL1(1-2,1-2) (Homo sapiens); test: as above; conditions: label: 5'-32P; short hairpin (predicted)
T4 chain: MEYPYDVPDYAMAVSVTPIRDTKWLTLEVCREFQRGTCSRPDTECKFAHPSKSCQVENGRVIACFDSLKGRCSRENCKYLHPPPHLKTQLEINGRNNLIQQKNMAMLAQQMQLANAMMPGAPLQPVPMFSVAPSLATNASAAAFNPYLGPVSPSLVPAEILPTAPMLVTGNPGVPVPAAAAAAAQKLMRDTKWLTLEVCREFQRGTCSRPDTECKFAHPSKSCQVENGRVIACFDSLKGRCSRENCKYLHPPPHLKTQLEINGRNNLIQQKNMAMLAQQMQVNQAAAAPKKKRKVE
Source text: as §1, §2

[5] = target: T5, WT-MBNL1 (truncated, aa 1-260 with HA tag and SV40 NLS) (Homo sapiens, UniProt Q9NR56 SEQ:14-272); test: EMSA; 115 mM NaCl, 20 mM Tris pH 7.5, 5 mM MgCl2, heparin, room temperature; apparent Kd; repeated with another batch in FIG. 10C; conditions: label: 5'-32P; short hairpin (predicted)
T5 chain: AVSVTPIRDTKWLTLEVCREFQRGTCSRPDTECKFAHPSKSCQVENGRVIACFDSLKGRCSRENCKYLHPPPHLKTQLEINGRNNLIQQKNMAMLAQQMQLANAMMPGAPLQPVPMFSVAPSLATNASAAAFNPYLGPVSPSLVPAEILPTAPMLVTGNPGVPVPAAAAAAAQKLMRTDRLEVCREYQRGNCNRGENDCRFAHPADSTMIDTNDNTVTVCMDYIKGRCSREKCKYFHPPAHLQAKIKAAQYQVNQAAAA
Source text: as §1, §2

For 30 bp synthetic dsRNA, which Kd [1] is on record?
Its Kd is 11 nM.

Which Kd [2] does the source give for HIV TAR RNA here?
Its Kd is 59 nM.

For GCUGCUGUUCGCUGCUG (ssRNA) [CUG4], which Kd [3] is on record?
Its Kd is 257 nM.

What about the Kd [4] of the same molecule?
Its Kd is 269 nM.

What about the Kd [5] of the same molecule?
The Kd was 196 nM.
